This note sets out measurements from patent US20150133367A1 (University of Pennsylvania, published 2015).

Like-named read-outs stand apart in the source and are kept apart here. Positions of bridges follow the written chain, without caps; N, C: chain ends. Non-standard residues stand in square brackets, D forms with d. No end group written: not given here. alpha,alpha'‑meta‑xylylene = alpha,alpha'-meta-xylylene linker (from a,a'-dibromo-meta-xylene) bridging two cysteines via bis-thioether; βAla = NCCC(=O)O

A word on the Ki: it is a dissociation constant, usually derived from enzyme kinetics or from competition with a known ligand. Read a high Ki as lower affinity.

What all share (assay): fluorescence-based enzyme inhibition assay
Experiment [1] addresses T1, Calpain-1.
T1 chain 1: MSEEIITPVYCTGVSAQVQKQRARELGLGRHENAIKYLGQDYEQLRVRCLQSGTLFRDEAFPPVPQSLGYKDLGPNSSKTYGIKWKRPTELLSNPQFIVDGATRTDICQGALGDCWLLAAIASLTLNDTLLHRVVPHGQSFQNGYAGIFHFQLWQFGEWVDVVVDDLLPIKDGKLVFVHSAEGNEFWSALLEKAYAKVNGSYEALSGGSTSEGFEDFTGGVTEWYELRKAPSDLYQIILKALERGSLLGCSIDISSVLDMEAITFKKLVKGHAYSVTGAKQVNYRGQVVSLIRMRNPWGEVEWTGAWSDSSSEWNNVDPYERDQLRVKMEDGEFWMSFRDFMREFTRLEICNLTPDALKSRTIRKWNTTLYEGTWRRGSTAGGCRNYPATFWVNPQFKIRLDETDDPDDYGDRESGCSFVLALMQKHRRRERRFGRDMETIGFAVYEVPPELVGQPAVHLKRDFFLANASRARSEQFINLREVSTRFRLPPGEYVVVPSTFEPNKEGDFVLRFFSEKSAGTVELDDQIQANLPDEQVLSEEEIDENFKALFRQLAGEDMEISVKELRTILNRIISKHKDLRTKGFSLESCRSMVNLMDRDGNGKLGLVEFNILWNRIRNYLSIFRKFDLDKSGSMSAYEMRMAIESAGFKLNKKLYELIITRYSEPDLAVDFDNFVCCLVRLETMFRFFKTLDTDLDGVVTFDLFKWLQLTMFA
T1 chain 2: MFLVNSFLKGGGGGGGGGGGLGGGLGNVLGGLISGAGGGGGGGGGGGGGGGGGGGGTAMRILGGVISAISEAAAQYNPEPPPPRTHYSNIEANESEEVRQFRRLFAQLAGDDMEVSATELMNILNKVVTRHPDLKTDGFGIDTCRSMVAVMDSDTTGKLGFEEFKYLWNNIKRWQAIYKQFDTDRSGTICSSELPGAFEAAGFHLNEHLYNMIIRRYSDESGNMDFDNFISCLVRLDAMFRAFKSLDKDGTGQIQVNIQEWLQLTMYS

Experiment [2] deals with T2, Cathepsin S (UniProt P25774 115-331).
Experiment [3] addresses T3, Cathepsin L (UniProt P07711 114-333).
Experiment [4] addresses T4, Cathepsin K (UniProt P43235 115-329).
T4 sequence (looked up): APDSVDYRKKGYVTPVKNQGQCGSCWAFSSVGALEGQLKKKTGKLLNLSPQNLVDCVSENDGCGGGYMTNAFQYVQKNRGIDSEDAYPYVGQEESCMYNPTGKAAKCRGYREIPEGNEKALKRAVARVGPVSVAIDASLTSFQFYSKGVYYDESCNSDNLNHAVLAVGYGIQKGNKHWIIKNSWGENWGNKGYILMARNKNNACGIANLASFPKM

Experiment [5] has as its target T2, Cathepsin S. This is another data set of the same source.
Experiment [6] deals with T3, Cathepsin L. This is another data set of the same source.
In experiment [7] the target is T4, Cathepsin K. The source holds these as a separate data set.
For experiment [8], the target named is T1, Calpain-1.

T2 sequence (P25774 115-331 limits assumed): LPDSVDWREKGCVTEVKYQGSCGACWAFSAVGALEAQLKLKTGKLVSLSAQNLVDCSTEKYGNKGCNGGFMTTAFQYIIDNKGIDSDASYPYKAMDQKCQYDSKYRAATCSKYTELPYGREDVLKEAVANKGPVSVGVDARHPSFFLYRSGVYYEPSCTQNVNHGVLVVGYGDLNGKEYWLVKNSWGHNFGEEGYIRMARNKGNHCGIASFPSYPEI
T3 sequence (P07711 114-333 limits assumed): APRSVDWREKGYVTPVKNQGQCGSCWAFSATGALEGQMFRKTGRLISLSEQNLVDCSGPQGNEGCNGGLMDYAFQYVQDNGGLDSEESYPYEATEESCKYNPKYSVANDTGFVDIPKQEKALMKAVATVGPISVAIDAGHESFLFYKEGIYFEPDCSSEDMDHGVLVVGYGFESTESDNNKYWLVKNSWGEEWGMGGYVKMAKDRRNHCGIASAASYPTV

For IPPCYRECLA (linker 4-8 via alpha,alpha'‑meta‑xylylene) [IPPCYRECLA (SEQ ID NO:64)], the Ki with Calpain-1 [1] was 95.6 µM.

Consider LGKREVTIPPKYCELLC (linker 13-17 via alpha,alpha'‑meta‑xylylene, 17 amino acids) [LGKREVTIPPKYCELLC (SEQ ID NO:67)], for which the Ki with Calpain-1 [1] is 3.6 µM; with Cathepsin S [2], 31.5 µM.

With LFKREVTIPPKYCELLC (linker 13-17 via alpha,alpha'‑meta‑xylylene, 17 amino acids) [LFKREVTIPPKYCELLC (SEQ ID NO:68)], the inhibition constant Ki with Calpain-1 [1] was found to be 1.3 µM; with Cathepsin S [2] it was 41.5 µM; with Cathepsin L [3], 10.7 µM.

As to SCEEVCKPGGP (linker 2-6 via alpha,alpha'‑meta‑xylylene) [SCEEVCKPGGP (SEQ ID NO:47)], the Ki with Cathepsin K [4] is > 100 µM.

As for IPPKYRCLLAC (linker 7-11 via alpha,alpha'‑meta‑xylylene) [IPPKYRCLLAC (SEQ ID NO:66)], the results for the inhibition constant (Ki) in the experiment with Calpain-1 [1] and with Cathepsin L [3] were 7.5 µM and 5.1 µM, respectively.

In the experiment with Cathepsin S [5], FFEFFCSLMCS (linker 6-10 via alpha,alpha'‑meta‑xylylene) [FFEFFCSLMCS (SEQ ID NO:27)] gave a Ki of 13.1 µM.

In turn, IPPKYCELFC (linker 6-10 via alpha,alpha'‑meta‑xylylene) [IPPKYCELFC (SEQ ID NO:88)] returned an inhibitory constant (Ki) with Calpain-1 [1] of 27.9 µM.

B1: SCESVCKPWGP (SEQ ID NO:50) (peptide)
peptide: SCESVCKPWGP
modifications: linker 2-6 via alpha,alpha'‑meta‑xylylene
notes: also called compound (IIa); quadruple mutant
Regarding B1, the inhibition constant (Ki) in the experiment with Cathepsin K [4] came out at 17.2 µM.

PPPKYCELLC (linker 6-10 via alpha,alpha'‑meta‑xylylene) [PPPKYCELLC (SEQ ID NO:73)]: the affinity in the experiment with Calpain-1 [1], expressed as Ki, was 45.3 µM.

As to SCEVVCKMTGLKVPL (linker 2-6 via alpha,alpha'‑meta‑xylylene, 15-mer) [SCEVVCKMTGLKVPL (SEQ ID NO:56)], the Ki with Cathepsin K [4] came to 22.7 µM.

In turn, DPPKYCELLC (linker 6-10 via alpha,alpha'‑meta‑xylylene) [DPPKYCELLC (SEQ ID NO:71)] registered a Ki in the experiment with Calpain-1 [1] of 27.6 µM.

QPPKYCELLC (linker 6-10 via alpha,alpha'‑meta‑xylylene) [QPPKYCELLC (SEQ ID NO:76)] came in with an inhibition constant Ki with Calpain-1 [1] of 35 µM.

With SCESVCKPWGPKVP (linker 2-6 via alpha,alpha'‑meta‑xylylene, 14-mer) [SCESVCKPWGPKVP (SEQ ID NO:55)], the Ki with Cathepsin K [4] turned out to be 16.2 µM.

Regarding IPPKYCELLC (linker 6-10 via alpha,alpha'‑meta‑xylylene) [IPPKYCELLC (SEQ ID NO:65)], the inhibition constant Ki in the experiment with Calpain-1 [1] was found to be 10.2 µM; with Cathepsin S [2] it was 50.2 µM; with Cathepsin L [3], 39.9 µM.

On to IPPRYCELLC (linker 6-10 via alpha,alpha'‑meta‑xylylene) [IPPRYCELLC (SEQ ID NO:80)], for which the Ki with Calpain-1 [1] came out at 5.3 µM; with Cathepsin S [2], 35.9 µM; in the experiment with Cathepsin L [3] it was 37.9 µM.

IPPKYCALLC (linker 6-10 via alpha,alpha'‑meta‑xylylene) [IPPKYCALLC (SEQ ID NO:84)]: the inhibition constant (Ki) was found to be 28.9 µM with Calpain-1 [1], 15.6 µM with Cathepsin S [2] and 12.5 µM with Cathepsin L [3].

For IPPRWCELLC (linker 6-10 via alpha,alpha'‑meta‑xylylene) [IPPRWCELLC (SEQ ID NO:91)], the inhibitory constant (Ki) with Cathepsin L [3] worked out at 8.8 µM.

APPKYCELLC (linker 6-10 via alpha,alpha'‑meta‑xylylene) [APPKYCELLC (SEQ ID NO:72)]: the Ki with Calpain-1 [1] was determined as 65.6 µM; in the experiment with Cathepsin S [2] it was 26.1 µM; in the experiment with Cathepsin L [3], 12.5 µM.

On to IPPKYCEQLC (linker 6-10 via alpha,alpha'‑meta‑xylylene, also called compound (Ia)) [IPPKYCEQLC (SEQ ID NO:85)], for which the Ki in the experiment with Calpain-1 [1] was 11 µM; with Cathepsin S [2], 21.4 µM; in the experiment with Cathepsin L [3] it was 66.2 µM.

As to IPPKYCEALC (linker 6-10 via alpha,alpha'‑meta‑xylylene) [IPPKYCEALC (SEQ ID NO:86)], the Ki was 30.9 µM in the experiment with Calpain-1 [1], 13.9 µM with Cathepsin S [2] and 21.4 µM with Cathepsin L [3].

IPPAYCELLC (linker 6-10 via alpha,alpha'‑meta‑xylylene) [IPPAYCELLC (SEQ ID NO:78)]: the Ki in the experiment with Calpain-1 [1] came to 17.7 µM; with Cathepsin S [2] it was 20.7 µM; with Cathepsin L [3], 24.6 µM.

As to IPPKACELLC (linker 6-10 via alpha,alpha'‑meta‑xylylene) [IPPKACELLC (SEQ ID NO:81)], the figures for the inhibition constant (Ki) with Cathepsin S [2] and in the experiment with Cathepsin L [3] were 16.8 µM and 8.12 µM, respectively.

On to LPPKYCELLC (linker 6-10 via alpha,alpha'‑meta‑xylylene) [LPPKYCELLC (SEQ ID NO:74)], for which the inhibition constant Ki in the experiment with Calpain-1 [1] is 11 µM; with Cathepsin S [2], 46.3 µM; in the experiment with Cathepsin L [3], 38.1 µM.

TSEEVCSLMCS (linker 6-10 via alpha,alpha'‑meta‑xylylene) [TSEEVCSLMCS (SEQ ID NO:16)]: the Ki with Cathepsin S [5] was 52.1 µM; with Cathepsin L [6] it was 16.7 µM.

Turning to TWEEVCSLMCS (linker 6-10 via alpha,alpha'‑meta‑xylylene, single mutant) [TWEEVCSLMCS (SEQ ID NO:18)], the results for the inhibitory constant (Ki) with Cathepsin K [7], with Cathepsin S [5] and in the experiment with Cathepsin L [6] were 67.5 µM, 29.7 µM and 93.9 µM, respectively.

With TSEWVCSLMCS (linker 6-10 via alpha,alpha'‑meta‑xylylene, single mutant) [TSEWVCSLMCS (SEQ ID NO:20)], the inhibition constant Ki was found to be 33.1 µM with Cathepsin S [5] and 57.1 µM with Cathepsin L [6].

For the molecule WSEEVCSLMCS (linker 6-10 via alpha,alpha'‑meta‑xylylene, single mutant) [WSEEVCSLMCS (SEQ ID NO:17)], the Ki is 108 µM with Calpain-1 [8], 51 µM in the experiment with Cathepsin S [5] and 76 µM with Cathepsin L [6].

TSEEWCSLMCS (linker 6-10 via alpha,alpha'‑meta‑xylylene, single mutant) [TSEEWCSLMCS (SEQ ID NO:21)]: the Ki was 80.4 µM with Cathepsin S [5] and 105 µM with Cathepsin L [6].

Turning to TWEWVCSLMCS (linker 6-10 via alpha,alpha'‑meta‑xylylene, double mutant) [TWEWVCSLMCS (SEQ ID NO:23)], the inhibition constant Ki was found to be 88.4 µM in the experiment with Calpain-1 [8], 65.7 µM in the experiment with Cathepsin K [7], 14.3 µM with Cathepsin S [5] and 33.8 µM in the experiment with Cathepsin L [6].

Turning to EVTIPPKYCELLC (linker 9-13 via alpha,alpha'‑meta‑xylylene) [EVTIPPKYCELLC (SEQ ID NO:69)], the inhibition constant (Ki) with Calpain-1 [1] was 5.3 µM; with Cathepsin S [2], 31.3 µM; with Cathepsin L [3], 69.6 µM.

With [βAla]AIPPKYCELLC (linker 8-12 via alpha,alpha'‑meta‑xylylene) [(b-Ala)AIPPKYCELLC (SEQ ID NO:70)], affinity in the experiment with Calpain-1 [1] was put at a Ki of 10.7 µM.

B2: I(pf5)PKYCELLC (SEQ ID NO:77) (peptide)
peptide: IXPKYCELLC
modifications: Cys6 and Cys10 (i,i+4) linked by alpha,alpha'-meta-xylylene; residue 2 pf5 = pentafluorophenylalanine
In the case of B2, the Ki with Calpain-1 [1] came out at 5.09 µM.
